This is an account of results in patent US20240254260A1 (ISU ABXIS, published 2024).

In this assay the target is T1, ASM protein present in the blood plasma of APP/PS1 mice (mouse, UniProt Q04519 45-626, limits assumed).
T1 sequence: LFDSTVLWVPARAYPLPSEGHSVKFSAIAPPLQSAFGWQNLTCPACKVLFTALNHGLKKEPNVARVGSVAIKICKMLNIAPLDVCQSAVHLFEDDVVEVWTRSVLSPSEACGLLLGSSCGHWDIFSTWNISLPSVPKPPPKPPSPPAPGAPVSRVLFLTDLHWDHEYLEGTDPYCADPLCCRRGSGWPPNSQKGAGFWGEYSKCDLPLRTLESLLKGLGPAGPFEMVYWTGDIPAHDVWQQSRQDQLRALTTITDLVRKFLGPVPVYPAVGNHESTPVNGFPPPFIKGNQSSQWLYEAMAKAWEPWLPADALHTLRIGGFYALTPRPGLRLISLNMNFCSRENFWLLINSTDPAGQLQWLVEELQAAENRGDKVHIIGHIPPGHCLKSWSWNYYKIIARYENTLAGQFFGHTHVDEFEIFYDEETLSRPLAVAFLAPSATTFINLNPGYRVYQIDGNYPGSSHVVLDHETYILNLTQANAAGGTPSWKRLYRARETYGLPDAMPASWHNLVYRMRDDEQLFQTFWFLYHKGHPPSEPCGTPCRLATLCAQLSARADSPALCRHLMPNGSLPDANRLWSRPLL
The assay is described as follows: cell-based or functional assay.

B1: antibody #9104 (antibody, mouse IgG1, V domains shown)
VH: EVQLLESGGGLVQPGGSLRLSCAASGFTFSNYYMSWVRQAPGKGLEWVSGIYYGSGNIYYADSVKGRFTISRDNSKNTLYLQMNSLRAEDTAVYYCARDTPGFDYWGQGTLVTVSS
VL: QSVLTQPPSASGTPGQRVTISCTGSSSNIGNNAVNWYQQLPGTAPKLLIYYDSHRPSGVPDRFSGSKSGTSASLAISGLRSEDEADYYCGAWDYSLSAYVFGGGTKLTVLG
Consider B1, for which the “activity of the ASM protein in blood plasma of APP/PS1 mice after administration of 50 mg/kg antibody (UPLC), relative to the negative control group” value was approximately 64%.
